# In the DeepSol protein solubility set:
# Assay: soluble on expression in E. coli; label from the status in PepcDB or PDB records
row,Sequence,soluble on expression in E. coli
1,MGSDKIHHHHHHMSITPHRLPVAPVIVREAYLSLLRKGWRPGDRDLKTPRNVKIETGIIEKAEGSALVKLGKTQVIAGVKAGVGAPFKDTPNQGVLTVHAEFVPLASPVFEPGPPDENAIELARVVDRSLREVGAVDLESLVIRPGEKVWVLWVDLYIIDHDGNLFDASMLATMAVLLTARLPRYEESETGEIIISKEGEGEELKVKTRVVTVTTAKIDRYIVVDPNIEEEAVSDVRLVTAVDENGRIVGLQKTGMGSLTEADIETMIGYSLEASKVYFKALEEAIKP,not soluble
2,MGSDKIHHHHHHMSKAPDFEGLAMFAKVAEERSFAAAARVLGLSVATVSRGVSRLEERLGARLFNRTSRRLALTDFGHRLAERASRLYRDAEDAENAARELSASPRGLVRLAVPMSFGLRWVAPLLPDFFKLYPDVSIDMHLSDAVVDLIGEGFDAALRIAVLPDSSLVARRLCSIAPFIVAAPSYLARHGRPSTPRDLDAHHCLGYAYRPRQDVWHFSNAAGDEEVVTPSGPLRVTNSDALVPTVLAGIAIAELPEFIASEYLADGRLQAILTDWTLPRGALYFVTPSARARPAKVEAVAGFMAAHLSRPSWQPINP,not soluble
3,MGSDKIHHHHHHMSKHVPKATLLTPSDVAFITDANRPVLTHTRNMAAEAGIEPHSHPRGQLLWAAKGLLRVRSENAVWVVPSTHAVWIPCNLPHQVNSETHAHTRNIYIDPSYDVRSLDTQVVMVTMTALMRELVLKLCESSHLMNSGQLHRLGLVAIDELETLDSLDAHLPAGSDPRLSRLIQKLIRHPTVNYTLTELAEMGGASVRTIERLFKAETGLTYRQWRQRFRLLNSLESLSQGESTTRVAHSLGYLSVSSFSAAFKMQFGCTPQDYPQHKPMKSKVNWFPDPVTGNN,not soluble
4,MGSDKIHHHHHHMSKNEIIWFDGKWSDSGVPMIGAADHAFWMASTVFDGARAINGHLPDLSAHSQRVINSALTMGMKPKIDRQEIERLVHEGMSHLTNQETDYYIKMLFFCPGGFLLPDADTTTFALHIFEAPLPEDKGFSATFSEYRRPAPSMAPTEAKASCLYPNTQRIIRDAIARGFENAVVLDSDGNVAEFAVANLWIVRDGVALTPTPNGSFLNGITRQRVMALLRDDGITVRETQLAPSDVMEADEVFSTGNHGKVLHCNRVEDRSLPYGPIAQRARELYMAYAHTC,not soluble
5,MGSDKIHHHHHHMSKTLKEITDQKNELKKFFENFVLNLEKTEIFSEIQKNLTDEVLFVGCGSSYNLALTISYYFERVLKIRTKAIPAGEVAFQKIPDLEERGLAFLFSRTGNTTEVLLANDVLKKRNHRTIGITIEEESRLAKESDLPLVFPVREEAIVMTKSFSMILLSLMFLADKIAGNSTERFSELVGYSPEFFDISWKVIEKIDLKEHDHFVFLGMSEFFGVSLESALKCIEMSLTFSEAYSTLEYRHGPKALVKKGTLVFMQKVSGMDEQEKRLRKELESLGATVLEVGEGGDIPVSNDWKSAFLRTVPAQILGYQKAISRGISPDKPPHLEKTVVL,soluble
6,MGSDKIHHHHHHMSKVFSPFQFDNSFVRSMEGFFEPWQGARVPAPAMVCFNQQLADELGMDADAMEDSRLAAFFCGMLTAEGSEPVAMAYAGHQFGGFSPRLGDGRALLLGEVKDIHGRRRDLHLKGSGRTNFSRGGDGKAVLGPVLREYLMGEAMHALGIPTTRALAAVTTGEDIYRDGIKPGAVLARVASSHIRVGTFEYAAARGDHEGLRELVNYSLKRHYPELEDEQTPALALLNSVSRAQAKLVAKWMGVGFIHGVMNTDNVTISGETIDYGPCAFMDTYDARTVFSSIDHEGRYAYGNQPGIARWNLARFAEALLPLLAEDESEALAHAQTVLDGFAEVYTNEWLAVFAAKFGLKTAQDGDLELFMDFLTLLGELKLDFTRSFRALANSLGDTAAAGIEALTADSARFAPWLTRWHERLGREYASQSDFASDARALMQGVNPVYIPRNHLLQGALDSAEAGDMAPFERLLEVVCRPYEELAGYGAYALGAPEDFGPFRTFCGT,not soluble
7,MGSDKIHHHHHHMSLTITKLQKKIADQAVLNNITFSLSLGQVVGLVGPNGIGKTTIFRTVTHQYRADGGTIELDEQDLTDHPEQRENLFYLDNQHLFFRKYRLDKIAGDYQLLYATFDQARFMALIEKFGLQGSQRFQSLSKGYQALVMVALALASGAPYVFLDEPFDGLDLLIRERIVNLVVDAVADGKRTFLIASHNLVELDGLSDRVLFVKAGRISQDLTLEDVRQQAIKLQLVFKTKAIPDVIR,not soluble
8,MGSDKIHHHHHHMSLTPVLDKIDSDVSAATDRLLELLRIPSISTDPAYKADCDAAADWLVKDLNSIGIKAEKRETPGHPMVVGHVGEENTKGPHLLFYGHYDVQPVDPLNLWNTPPFEPQLEETPNGTVIRGRGASDDKGQLMTFVEACRAWQAVHGTLPCRITFFFEGEEESGSPSLIPFLEAAKEELSADIALICDTSMVARGVPLVASQLRGMMKDEFTLIGPKIDLHSGHYGGPGLNPLREISHIIASFHDPDTGAVAVEGFYEGVPEVPADILRQWEGCGFDEKDYLSNAGYTEAHGEKKYSTLEQQWARPTLEINGLWGGYQGAGTKTVIPSEAHCKITCRLVGDMDPADLRQKIRKHVEDRLPTDCTVKWDLDLDGAPAYVIDTTRPEFEAARGALTEEWNREAVFSGMGGSIPVAGYFKSILGMDAMLIGFANEDDAIHSPNEKYDLESFHKGIRSWARVLDALSKA,not soluble
9,MGSDKIHHHHHHMSNAEWLNALETPFLLIDEFRFQRNIDRLYQRTKNLGSQVRPHLKTLRSIEAGRYLLKDSASPATVSTLAEAEAFAGAGYTNLLYAVGIAPHKLPRIANLIHKGVNLHILLDSVEQARAVTDYALANNVTFSVFIEIDCDGHRGGIPPESDALLELAQQIDGNGATLTGLLAHAGESYACRTDEAIRAAARAECAAINIAGRRVRALGIACPVLSVGATPTAHFAEDLTGITEVRAGVFTTFDLVMKNVGVCSLDDIALSVVSTVIGHNREKGWVFIDAGWMALSRDRGTASQAKDYGYGLVCDLHGSPYHDLCVTVTNQEHGIIALPTDSGFSVDNFPVGTRLRILPNHACATAAMHQHYQVLKSHRHEQETWQRITGW,not soluble
10,MGSDKIHHHHHHMSNLPLISVVIPTYGREEILRDSIVDVLNQDYPKYEVLVVDQSPKHKPEIETYLEEVAAAGKVKWFRLDWASLPGARNYAIRRASGEIILFIDDDVKLKPGFLAAHAKNYVQNPDVGSVAGRVFDRMKLGDSGGNLEIEYLPPEAMDPGVAWYHIDLVHTIKPQQVLTARGCNMSFRREIFTKHGLRFDERFRGSAVREESDFCLRLRQTGYKIWYDPEADLIHLGEETGGCHDISMRSLKYQFTFYHNHFLLGLKNLNFSQALRLYARLFDCHVLGRPPCHKSGSPIKIITRGIFYILGFFRALGSVIQSNWHDGQIYSRLDQESIIKSQESMVNS,not soluble
11,MGSDKIHHHHHHMSQDTILLIWDRIGDYHLSRVKACEKLLGAPVFTADLAGTDNLYKWDSIAKTTHTVLSSKPAEQSDIWNRFRTFRRIIKTHSIAVVAMPYGRTEYHIFLLYARLKGIRTIIFSESWYSRGKLKDFLKSLLLKSLGNYFFVSGKRAFDHFTKNYKINPEKIETGYSVVDNNHFQRRLFTEKKYVLTIARYSEEKNLSFLIDSYAKSVISNTYNLMLIGEGPLRPALQSQIDILGLSDRVQLAGWVPYAALPKAYAEAVVFVLPSSFEPWGLVVNEAMSAGLPILVSDACGCMPELVAEGVNGWSFNSNTQQELIERLNAFAALSEKGIEITGKNSMQLIRNYTPDTWAGSIARLAQAGR,not soluble
12,MGSDKIHHHHHHMSQRIGVIDMGTNTFHLLITDIVNDRPHTLVNEKSAVGLGKGGITKGFITEEAMDRALDTLKKFRVILDEHAVVHVIATGTSAVRSGSNKQVLIDRIKKEVNIDVEVIDGAREAELIFRGVQQAVPMEDHISLAMDIGGGSVEFIIGNKNEILWKQSFEIGGQRLIDRFHVHDPMREDDRVMMHNYFDEVLVPLEKAINTWRPTQLIGCSGTFDTLAEMNIQHHREKIALEKQTSYLLSLPDFNRLRKQLVASTRRERLAIAGMIELRADMVVVAICLIEHVLKLVSTNAITVSTYSLKEGVLYTMLDGVKVGS,not soluble
13,MGSDKIHHHHHHMSRIVNVKLSLKRYEYEKPFHITGSVSSESRNVEVEIVLESGVKGYGEASPSFRVNGERVEALLAIENAVREMITGIDVRNYARIFEITDRLFGFPSLKAAVQFATLDALSQELGTQVCYLLGGKRDEIETDKTVGIDTVENRVKEAKKIFEEGFRVIKIKVGENLKEDIEAVEEIAKVTRGAKYIVDANMGYTQKEAVEFARAVYQKGIDIAVYEQPVRREDIEGLKFVRFHSPFPVAADESARTKFDVMRLVKEEAVDYVNIKLMKSGISDALAIVEIAESSGLKLMIGCMGESSLGINQSVHFALGTGAFEFHDLDSHLMLKEEVFRGKFIQDGPRMRVKDQ,not soluble
14,MGSDKIHHHHHHMSSCGKNENPQEMNRRKFLKVFGGGAVASSAALYGCAPKNEPGAAVALGEVPTDKMTYRQHPTNGDKVSILGYGCMRWPLKQGSDGKDQIDQEAVNRLVDYAIEHGVNYFDTSPVYVQGMSEKATGIALARHPRNSYYLATKLSNFQNYTRENSLAMYRQSFRDLQTDYLDYYLLHSIGGGNGIELFNDRYINNGMLDFLVKEREAGRIRNLGWSFHGDVKVFDYVLDMGVKWDFVQIQLNYLDWKHASGRNVNADYLYGELEKRGIPAVIMEPLLGGRLSNVPDHIVARLKQQRPENSVASWAFRFAGSPDGVLTVLSGMTYMEHLQDNIRTYSPLIPVTDEEKDFLEETAQLMMKYPTIPCNDCKYCMPCPYALDIPGILLHYNKCVNEGNVPKSAQDENYAKARRAFLVGYDRSVPKLRQANHCTGCEQCNPHCPQGIDIPKEMQRIDKFVEELKVNG,not soluble
15,MGSDKIHHHHHHMSSILRLDRLRQFIGELATLLDSRPDESTLLAQAHPLLAELVHQDDWLPEDCARPDPQRYQQYLLHVDSRQRFSVVSFVWGPGQITPVHDHRVWGLIGMLRGAEYSQPYAFDAGGRPHPSGARRRLEPGEVEALSPRIGDVHQVSNAFSDRTSISIHVYGANIGAVRRAVFSAEGEEKPFISGYSNSRLPNIWDLSKENPA,not soluble
16,MGSDKIHHHHHHMSSKAEKDIKWGIAPIGWRNDDIPSIGKDNNLQQLLSDIVVAGFQGTEVGGFFPGPEKLNYELKLRNLEIAGQWFSSYIIRDGIEKASEAFEKHCQYLKAINAPVAVVSEQTYTIQRSDTANIFKDKPYFTDKEWDEVCKGLNHYGEIAAKYGLKVAYHHHMGTGIQTKEETDRLMANTDPKLVGLLYDTGHIAVSDGDYMALLNAHIDRVVHVHFKDVRRSKEEECRAKGLTFQGSFLNGMFTVPGDGDLDFKPVYDKLIANNYKGWIVVEAEQDPSKANPLEMAQIAHRYIKQHLIEN,not soluble
17,MGSDKIHHHHHHMSSKRLVIVGGGITGLAAAYYAERAFPDLNITLLEAGERLGGKVATYREDGFTIERGPDSYVARKHILTDLIEAIGLGEKLVRNNTSQAFILDTGGLHPIPKGAVMGIPTDLDLFRQTTLLTEEEKQEVADLLLHPSDSLRIPEQDIPLGEYLRPRLGDALVEKLIEPLLSGIYAGNIDQMSTFATYPQFVANEQKAGSLFEGMRLMRPLDQLPQTPQTTIKATGQFLSLETGLESLIERLEEVLERSEIRLETPLLAISREDGRYRLKTDHGPEYADYVLLTIPHPQVVQLLPDAHLPELEQLTTHSTATVTMIFDQQQSLPIEGTGFVVNRRAPYSITACTAIDQKWNHSAPDHTVLRAFVGRPGNDHLVHESDEVLQQAVLQDLEKICGRTLEPKQVIISRLMDGLPAYTVGHADRIQRVREEVLAQYPGIYLAGLAYDGVGLPDCVASAKTMIESIELEQSHTDESVNET,not soluble
